Assay results as given in US20260042834A1, “ANTI-CORTICOTROPIN-RELEASING HORMONE ANTIBODIES AND POLYCYSTIC OVARY SYNDROME” (HBM ALPHA THERAPEUTICS, INC., priority 2022, published 2026).

T1: biotinylated CRH (Homo sapiens, UniProt P06850)
T1 construct: purchased GL Biochem 784751
T1 sequence (P06850 154-194): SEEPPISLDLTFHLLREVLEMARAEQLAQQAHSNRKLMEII


What was measured:
biotinylated CRH = target: T1, biotinylated CRH; experiment: Affinity determination with Octet; format: binding
Method in brief: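 Biolayer interferometry: 30 nM biotinylated CRH loaded onto streptavidin sensors, 2-fold antibody dilutions as analyte in PBS kinetics buffer. Association 180 s, dissociation 800 s, glycine pH 1.5 regeneration; double-referenced data fitted for affinity.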

[1] = system: constitutively high plasma ACTH in Mrap1 KO mice; experiment: Mrap1 KO mice constitutively high ACTH model; format: in vivo, mouse; conditions: for plasma ACTH concentrations in Mrap1 KO mice: single dose 20 mg/kg
Experimental: 8-10 week old wildtype female C57BL/6 mice were obtained from Charles River Laboratories. Mrap1 KO mice were obtained from Queen Mary University of London, UK. SSR125543A, a small molecule CRHR1 antagonist, was obtained from Axon Medchem (Cat #Axon 1799). Mouse Corticosterone (55-Corms-E01) and adrenocorticotropic hormone (ACTH) ELISA kits (21-ACTHU-E01) were obtained from ALPCO, USA. All procedures were carried out in accordance with the Guide for the Care and Use of Laboratory Animals of the National Institutes of Health. Protocols were approved by Charles River Laboratories Institutional Animal Care and Use Committee (IACUC).
To generate Mrap1 KO mice, Mrap1−/− male mice were bred with Mrap1+/− female mice. Corticosterone hormone replacement was performed by administering 50 μg/ml in drinking water to breeder cages when female mice were pregnant and their pregnancies palpable (approximately embryonic day 10). Drinking water was changed weekly, and treatment was stopped at weaning. Mice were uniquely identified with ear tags at the time of tail clipping to match future genotype with each mouse. DNA was extracted from tail tissue and used to genotype mice.
[…] On day 2 or 3, 14 and 28, 200 μl of blood was collected in EDTA tubes from the submandibular vein of each mouse. Plasma was separated using a refrigerated centrifuge (4° C. at 500×g for 10 min) and snap-frozen in dry ice for subsequent ACTH ELISA measurement.

mouse CRHR2 = experiment: CRH-induced luciferase reporter blocking assay, CHO-CRE-mCRHR2 cells; format: cell-based; conditions: CHO-CRE-mCRHR2 cells, 5 nM CRH
Method in brief: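 CHO-CRE cells stably expressing mouse CRHR2 were seeded overnight, then given serially diluted antibodies (8 points, 1:4) together with CRH at 5 nM final. After 4–6 h at 37 °C, CRE-driven luciferase was read by Bio-Glo luminescence.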

human CRHR2 = experiment: CRH-induced luciferase reporter blocking assay, CHO-CRE-hCRHR2 cells; format: cell-based; conditions: CHO-CRE-hCRHR2 cells, 0.1 nM CRH
Method in brief: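 CHO-CRE reporter cells stably expressing mouse or human CRHR2 were treated with serially diluted antibodies (8 points, 1:4) plus CRH at final 5 nM (mCRHR2) or 0.1 nM (hCRHR2), 4-6 hours at 37° C. CRE-driven luciferase read by luminescence after 10 min with detection reagent.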

Molecule	kdis (biotinylated CRH) [s⁻¹]	kon (biotinylated CRH) [M⁻¹ s⁻¹]	inhibition of ACTH versus SSR125543A ([1]; Mrap1 KO mice)	efficacy versus SSR125543A, ACTH levels ([1]; Mrap1 KO mice, day 2 and day 14, figure legend, doses not given)	efficacy in reducing plasma ACTH levels versus SSR125543A at 30 mg/kg ([1]; Mrap1 KO mice, mAb 5 mg/kg)	efficacy in reducing plasma ACTH levels versus SSR125543A at 30 mg/kg ([1]; Mrap1 KO mice, mAb 10 mg/kg)	efficacy in reducing plasma ACTH levels versus SSR125543A at 30 mg/kg ([1]; Mrap1 KO mice, mAb 20 mg/kg)	plasma ACTH concentrations in Mrap1 KO mice [1]	IC50 (mouse CRHR2) [nM]	IC50 (human CRHR2) [nM]
PR302334-24: humanized variant of Series 9 mAb PR302334; VH SEQ ID NO: 275, VL SEQ ID NO: 328 (antibody, V domains shown, PR302334-16 VH, PR302334-24 VH, PR302334-25 VH; PR302334-10 VL, PR302334-24 VL, PR302334-26 VL, PR302334-4 VL) VH: EVQLVESGGGLVKPGGSLRLSCAASGFTFSTYAMSWVRQAPGKGLEWVASIRSGGTTYYPDSVKGRFTISRDNAKNSLYLQMNSLRAEDTAVYYCTRGIDWGQGTTVTVSS VL: DIVMTQSPDSLAVSLGERATINCKASQSVNNDVAWYQQKPGQPPRLLIYYASNRYTGVPDRFSGSGSGTDFTLTISSLQAEDLAVYFCQQDYSSWTFGGGTKVEIK	<1e-07	606000	more complete inhibition	superior efficacy	more efficacious	more efficacious	more efficacious	significantly reduced	2.03	2.01
PR302334-26: humanized variant of Series 9 mAb PR302334; VH SEQ ID NO: 277, VL SEQ ID NO: 328 (antibody, V domains shown, PR302334-18 VH, PR302334-26 VH, PR302334-27 VH; PR302334-10 VL, PR302334-24 VL, PR302334-26 VL, PR302334-4 VL) VH: EVQLVESGGGLVQPGGSLRLSCAASGFTFSTYAMSWVRQAPGKGLEWVASIRSGGTTYYPDSVKGRFTISRDNSKNSLYLQMNSLRAEDTAVYYCTRGIDWGQGTTVTVSS VL: DIVMTQSPDSLAVSLGERATINCKASQSVNNDVAWYQQKPGQPPRLLIYYASNRYTGVPDRFSGSGSGTDFTLTISSLQAEDLAVYFCQQDYSSWTFGGGTKVEIK	<1e-07	329000						markedly reduced	1.47	1.24
